The target in this test is T1, 6xHis-tagged full-length Prp5p (S. cerevisiae, UniProt P21372 1-849).
T1 sequence: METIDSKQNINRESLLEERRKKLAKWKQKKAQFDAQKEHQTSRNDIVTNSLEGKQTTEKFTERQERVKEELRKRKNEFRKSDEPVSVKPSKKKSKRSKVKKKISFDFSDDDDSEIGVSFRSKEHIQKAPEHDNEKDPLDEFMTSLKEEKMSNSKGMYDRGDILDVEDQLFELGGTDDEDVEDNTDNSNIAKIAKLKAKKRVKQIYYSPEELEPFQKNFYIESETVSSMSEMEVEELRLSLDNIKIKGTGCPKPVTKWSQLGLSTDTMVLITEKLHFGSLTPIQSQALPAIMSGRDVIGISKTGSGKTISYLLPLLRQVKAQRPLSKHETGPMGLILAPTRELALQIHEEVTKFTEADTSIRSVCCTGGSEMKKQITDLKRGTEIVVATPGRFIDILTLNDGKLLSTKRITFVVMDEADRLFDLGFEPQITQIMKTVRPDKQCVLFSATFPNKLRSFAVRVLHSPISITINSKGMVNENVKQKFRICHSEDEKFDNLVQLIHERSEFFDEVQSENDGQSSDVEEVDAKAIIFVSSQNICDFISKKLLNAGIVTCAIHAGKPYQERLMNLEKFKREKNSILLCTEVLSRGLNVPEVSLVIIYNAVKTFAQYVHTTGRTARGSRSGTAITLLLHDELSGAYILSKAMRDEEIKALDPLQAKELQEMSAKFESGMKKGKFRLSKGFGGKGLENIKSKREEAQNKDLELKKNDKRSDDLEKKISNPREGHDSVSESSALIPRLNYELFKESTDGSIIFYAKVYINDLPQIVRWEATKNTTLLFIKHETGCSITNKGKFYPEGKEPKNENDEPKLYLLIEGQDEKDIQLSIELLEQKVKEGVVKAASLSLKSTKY
Description: pull-down.

B1: GST-tagged Spt8p (natural protein, S. cerevisiae, UniProt P38915 1-602, looked up)
chain: MDEVDDILINNQVVDDEEDDEEMLSGLENDSKQDLEGNDDGGEDEEDDDDDDEDDDDDEDEREDDDEQEDDDGEDDAARMDKTATPTNEHQHDEQKAAAAGAGGAGDSGDAVTKIGSEDVKLSDVDGGVGSREASSSTHEASANGEVYEYYKHMLNAAQIADSYNIYPTAAIPIQTHVNALAVSRGLKYLFLGGSDGYIRKYDLLNTLEGKLSLTILQKHSLAESIQNAGILQSYWENEIPQKKSEMKLSANKTDYEPKVSPVHSLEVQSECLFILSGLQNGGITMQGVRYMEGSIAHYFKGRNGHTQIVNILRLNGQEDRFLSGSWDKRLLEWDLQTGDIVNEFKKSRSELSSLEMRPLYSSVDVSGNVNSGKENENADDDMDSLFGDEDEDEKQDAGNEPVETGDGSNGEENKEQISEESLNIVYDESVFMTSGLNGSVHIWDRRMTQSPALSLERGAGVPPWCLSACWGVDGDHVYAGRRNACVEQFDLKMPSKPIHNLKLPSISGPVSCVKAMPNNKHLLCASRDNIRLYNVEIAVDASNSTTKSSKVPFLIVPGHHGGIISNLYLDPTSRFIISTSGNRGWQGNSTDTTLIYDIDLE
For the molecule B1, the binding result was “binds”.

The values are drawn from publication PMC7293005 (Nucleic Acids Research, 2020).
